Two substances from article PMC6476931 can be followed below.

The target of this assay is Human fibrinogen (human) (UniProt P02671). Description: ELISA; Fg coated on wells (5 μg/ml, 0.5 μg/well); GST-vWbp or GST-Coa proteins in 1% BSA, 0.05% Tween 20, TBS, 1 h at room temperature; detected with HRP anti-GST; one-site fit, apparent KD, mean of three experiments.
Sequence of Human fibrinogen (human) (P02671 36-866, chain 1 of 3): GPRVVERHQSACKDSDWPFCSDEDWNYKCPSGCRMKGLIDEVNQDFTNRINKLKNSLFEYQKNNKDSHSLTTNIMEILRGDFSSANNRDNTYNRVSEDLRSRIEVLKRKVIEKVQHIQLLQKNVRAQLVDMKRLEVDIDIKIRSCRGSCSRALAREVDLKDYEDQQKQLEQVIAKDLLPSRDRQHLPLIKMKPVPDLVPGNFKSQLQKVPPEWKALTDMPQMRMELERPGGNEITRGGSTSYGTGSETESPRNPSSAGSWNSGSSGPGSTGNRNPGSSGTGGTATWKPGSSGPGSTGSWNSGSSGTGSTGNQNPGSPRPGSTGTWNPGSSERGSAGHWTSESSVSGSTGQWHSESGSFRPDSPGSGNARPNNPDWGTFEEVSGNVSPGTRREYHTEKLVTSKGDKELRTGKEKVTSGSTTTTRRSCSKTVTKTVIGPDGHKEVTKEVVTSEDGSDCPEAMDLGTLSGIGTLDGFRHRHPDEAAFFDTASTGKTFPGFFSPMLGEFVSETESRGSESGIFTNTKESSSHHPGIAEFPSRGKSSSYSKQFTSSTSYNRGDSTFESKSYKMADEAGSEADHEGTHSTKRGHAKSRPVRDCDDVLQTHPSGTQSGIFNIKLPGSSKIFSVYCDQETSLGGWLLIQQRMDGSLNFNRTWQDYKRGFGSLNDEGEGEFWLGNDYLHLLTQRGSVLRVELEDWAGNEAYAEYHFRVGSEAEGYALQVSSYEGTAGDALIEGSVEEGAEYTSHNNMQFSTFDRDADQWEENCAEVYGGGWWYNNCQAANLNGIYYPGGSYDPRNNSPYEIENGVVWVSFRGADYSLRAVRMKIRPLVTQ
Sequence of Human fibrinogen (human) (P02675 45-491, chain 2 of 3, further chain): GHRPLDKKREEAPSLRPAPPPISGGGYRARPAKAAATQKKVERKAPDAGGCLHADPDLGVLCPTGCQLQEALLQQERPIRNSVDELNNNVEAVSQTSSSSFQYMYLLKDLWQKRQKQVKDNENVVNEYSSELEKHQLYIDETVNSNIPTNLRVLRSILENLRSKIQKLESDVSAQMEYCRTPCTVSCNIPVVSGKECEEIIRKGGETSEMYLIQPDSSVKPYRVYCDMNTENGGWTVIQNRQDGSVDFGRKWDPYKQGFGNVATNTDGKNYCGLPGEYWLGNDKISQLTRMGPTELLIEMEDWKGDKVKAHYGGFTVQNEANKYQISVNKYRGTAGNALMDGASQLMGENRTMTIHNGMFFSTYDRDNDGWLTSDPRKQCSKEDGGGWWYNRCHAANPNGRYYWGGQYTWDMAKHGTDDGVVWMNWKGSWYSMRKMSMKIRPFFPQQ
Sequence of Human fibrinogen (human) (P02679 27-453, chain 3 of 3, further chain): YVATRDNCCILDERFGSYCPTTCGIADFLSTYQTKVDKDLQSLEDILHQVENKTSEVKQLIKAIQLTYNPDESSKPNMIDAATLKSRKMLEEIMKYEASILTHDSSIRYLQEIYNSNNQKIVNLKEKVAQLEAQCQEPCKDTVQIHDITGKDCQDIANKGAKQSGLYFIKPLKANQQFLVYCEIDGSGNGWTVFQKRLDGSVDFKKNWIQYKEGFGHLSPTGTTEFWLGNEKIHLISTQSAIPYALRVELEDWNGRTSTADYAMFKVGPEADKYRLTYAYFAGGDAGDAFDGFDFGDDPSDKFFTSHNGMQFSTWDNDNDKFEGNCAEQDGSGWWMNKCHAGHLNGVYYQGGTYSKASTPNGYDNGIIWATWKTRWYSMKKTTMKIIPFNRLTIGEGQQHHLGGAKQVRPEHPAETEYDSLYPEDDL

Turning to “GST-vWbp-C (C-terminal half of vWbp) (domain or fragment)”, the Kd was determined as 38 nM.

“GST-vWbp-N (N-terminal half of vWbp) (domain or fragment)”: the Kd worked out at 3.2 nM.
